Results as given in publication PMC13071878, “Yeast Display Technology Enables Rapid Discovery of Low-Nanomolar Macrocyclic Peptide Inhibitors of Human Angiotensin-Converting Enzyme 2” (Journal of Medicinal Chemistry, 2026).

Key:
[1] = target: extracellular catalytic domain of human angiotensin-converting enzyme 2 (hACE2), produced in mammalian cells (human) (UniProt Q9BYF1); test: enzyme inhibition assay
[2] = target: human angiotensin-converting enzyme 1 (hACE1) (human) (UniProt P12821); test: enzyme inhibition assay
Chain of human angiotensin-converting enzyme 1 (hACE1) (human) (P12821 30-1256): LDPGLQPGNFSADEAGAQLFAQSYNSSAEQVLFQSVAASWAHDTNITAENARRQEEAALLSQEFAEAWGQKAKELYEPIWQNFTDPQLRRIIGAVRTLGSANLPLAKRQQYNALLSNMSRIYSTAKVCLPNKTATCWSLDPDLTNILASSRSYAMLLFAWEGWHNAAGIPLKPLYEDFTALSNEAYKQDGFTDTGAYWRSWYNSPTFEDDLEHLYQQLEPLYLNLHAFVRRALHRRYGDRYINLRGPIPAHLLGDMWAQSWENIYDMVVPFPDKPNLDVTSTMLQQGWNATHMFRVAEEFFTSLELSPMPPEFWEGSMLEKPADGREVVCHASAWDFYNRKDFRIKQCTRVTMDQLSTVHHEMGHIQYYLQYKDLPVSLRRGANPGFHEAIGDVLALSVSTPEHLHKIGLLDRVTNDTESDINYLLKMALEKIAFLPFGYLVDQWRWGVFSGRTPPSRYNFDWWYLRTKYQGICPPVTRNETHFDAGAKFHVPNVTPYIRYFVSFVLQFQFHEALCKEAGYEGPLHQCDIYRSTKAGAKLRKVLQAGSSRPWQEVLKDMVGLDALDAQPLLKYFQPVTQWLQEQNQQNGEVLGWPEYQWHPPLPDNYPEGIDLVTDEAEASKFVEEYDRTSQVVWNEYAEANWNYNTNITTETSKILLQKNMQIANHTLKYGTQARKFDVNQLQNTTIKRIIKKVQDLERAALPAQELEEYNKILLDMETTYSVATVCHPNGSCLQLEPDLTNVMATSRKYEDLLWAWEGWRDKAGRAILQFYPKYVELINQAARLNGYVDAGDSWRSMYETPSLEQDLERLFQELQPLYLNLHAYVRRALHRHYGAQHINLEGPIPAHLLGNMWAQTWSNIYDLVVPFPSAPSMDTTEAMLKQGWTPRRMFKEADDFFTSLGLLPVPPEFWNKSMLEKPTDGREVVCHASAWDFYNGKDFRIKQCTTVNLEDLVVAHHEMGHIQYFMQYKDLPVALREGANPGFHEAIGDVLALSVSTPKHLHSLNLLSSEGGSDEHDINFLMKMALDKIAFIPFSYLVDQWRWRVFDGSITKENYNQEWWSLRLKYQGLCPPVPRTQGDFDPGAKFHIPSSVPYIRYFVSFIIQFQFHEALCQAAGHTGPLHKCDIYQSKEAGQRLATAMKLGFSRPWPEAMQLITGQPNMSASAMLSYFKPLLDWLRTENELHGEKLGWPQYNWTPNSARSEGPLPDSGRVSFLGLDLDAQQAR

Chain of extracellular catalytic domain of human angiotensin-converting enzyme 2 (hACE2), produced in mammalian cells (human) (Q9BYF1 19-615): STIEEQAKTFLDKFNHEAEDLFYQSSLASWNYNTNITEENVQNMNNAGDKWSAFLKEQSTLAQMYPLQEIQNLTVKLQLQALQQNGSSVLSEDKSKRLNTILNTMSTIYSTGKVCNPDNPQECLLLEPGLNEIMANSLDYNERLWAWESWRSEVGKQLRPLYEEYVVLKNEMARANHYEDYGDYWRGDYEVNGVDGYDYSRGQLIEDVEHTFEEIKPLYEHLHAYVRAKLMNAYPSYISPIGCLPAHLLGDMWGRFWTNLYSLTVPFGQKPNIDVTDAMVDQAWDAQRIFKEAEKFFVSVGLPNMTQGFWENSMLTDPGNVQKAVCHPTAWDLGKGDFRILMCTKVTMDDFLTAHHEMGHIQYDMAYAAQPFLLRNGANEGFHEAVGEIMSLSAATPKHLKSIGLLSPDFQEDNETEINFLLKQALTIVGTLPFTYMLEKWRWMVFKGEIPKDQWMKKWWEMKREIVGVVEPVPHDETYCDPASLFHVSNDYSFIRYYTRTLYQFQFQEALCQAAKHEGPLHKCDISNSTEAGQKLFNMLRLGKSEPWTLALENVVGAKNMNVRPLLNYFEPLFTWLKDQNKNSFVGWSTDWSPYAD

Work on “A0773, commercially available inhibitor (peptide)” yielded an IC50 [1] of over 30000 nM, a Ki [1] of over 30000 nM and an IC50 [2] of 212 nM. The Ki [2] was 53 nM.
